The data set deals with the molecule itself. Description: cryo-EM structure; non-cross-linked full-length MpMS, unliganded, 50 uM in 20 mM HEPES pH 7.5, 150 mM NaCl, 1 mM DTT; only the PT domain reconstructed; map resolution 3.17 Å.

B1: Macrophomina phaseolina macrophomene synthase (enzyme, Macrophomina phaseolina MS6, UniProt K2SUY0 1-698, looked up)
chain: MCNTKCYNTLAKMTVITEPAMEYMYSVPLDESEYDKCGFCQDPRYRPRRHKDQHLARAGSAKAKELCEALIGVYPRPTCESAVGHSIALVMPECMPGRVEAMGEFMESIFYMDNIAESGSQQDTGNLGTEWANDMETGPTTSVNSNTGAKQVMAKLALQLLSIDPVCAGNVMKAWKEWAAGFAKPRRFDSIEQYIDYRLVDSGAIVAVHLMNFGMGLDISVEELREVSDIVNHAGKALSYQNDFFSFNYEHDMFVKLPDSIGIANAVFVLAETEGLSLAEAKERVKELAKEHEDAVLRLKDEVESKVSYKLRICLEGLVDMVVGNLVWSASCDRYSSYRREKHQMELPIRIQGPPTPPQEPVYEKATLPNGKQLDAPTESSGKDLSDGVATLSGDEPVLGDEIVSAPIKYLESLPSKGFREAIIDGMNGWLNLPARSVSIIKDVVKHIHTASLLCDDIEDSSPLRRGQPSAHIIFGVSQTVNSTSYLWTLAIDRLSELSSPKSLRIFIDEVRKMQIGQSFDLHWTAALQCPSEEEYLSMIDMKTGGLFHLLIRLMIAESPRKVDMDFSGLVSMTGRYFQIRDDLSNLTSEEYENQKGYCEDLDEGKYSLPLIHALKHTKNKVQLESLLIQRKTQGGMTLEMKRLAIQIMKEAGSLEHTRKVVLELQDAVHRELAKLEEAFGQENYVIQLALERLRIKA
notes: codon-optimized synthetic gene cloned NdeI/EcoRI into pET28a (pRC088); Used without cross-linking in one cryo-EM sample and cross-linked with 0.06% glutaraldehyde in another; Only the PT domain (plus one TC helix in the cross-linked sample) could be modelled; also called MpMS; MPH_02178; source: E. coli BL21(DE3), purified (Ni-NTA, Resource Q anion exchange, Superose 6 size exclusion)
One may read the stoichiometry N as the number of molecules, sites or subunits per partner or assembly. Take B1: the “stoichiometry N” value stood at 6.

The values are drawn from publication PMC9177416, “Discovery of non-squalene triterpenes” (Nature, 2022).
